Data as given in PMC3543441.

What was measured:
[1] = molecular target: C-terminal truncated Entamoeba histolytica ornithine decarboxylase (EhODCΔ15) (Entamoeba histolytica); assay: crystal structure; sitting drop, 20% PEG 3350, 0.2 M LiCl, pH 6.8, 20°C; P212121, four molecules per asymmetric unit; molecular replacement with human ODC (PDB 2ON3); apo-enzyme
[2] = molecular target: C-terminal truncated Entamoeba histolytica ornithine decarboxylase (EhODCΔ15) (Entamoeba histolytica); assay: SEC; HiLoad 16/60 Superdex 200, purified protein at 5 mg/ml injected, 0.5 ml/min; elution compared with Gel Filtration HMW Calibration kit markers; eluted at 74 ml

Question: Which results are given for “C-terminal truncated Entamoeba histolytica ornithine decarboxylase (EhODCΔ15) (enzyme)”?
Answer: stoichiometry N [1]: 4; stoichiometry N [2]: 2
